This series can be described thus: soluble on expression in E. coli; label from the status in PepcDB or PDB records.
Consider “MAGDPMDKNKLFFIETWGCQMNAEDSEKLAGMLKEMKYEATDNREDADLIIFNTCCVRENAELKVYGNLGTLKKLKDKKPNLIITVCGCMMQQRDMAEHIKKRFPFVDIVMGTHNTQMFPQYLKKVENERTSVVEIWDKEEGIVEGMPIYRSYDMKAFVTIMYGCNNFCTYCIVPYVRGRERSRKPEDIENEIKELVKKGYKEITLLGQNVNSYGKSLDEEMNFALLLRRLNNIEGLLRIRFMTSHPKDLTDDVIAAIADCDKVCEHIHLPVQSGSTTILNKMNRNYTREDYINLVNKIKSGIKNVAITTDIIVGFPGETEEDFEDTLSLVKEVEYDSAFTFLYSIREGTPAAKYENQIPDEVKHKRFNKLLEAVNLISEKKNKEYEGKIVEILVEGKSKNDGSKLMGRTRTGKLVNFEGLESSIGKLINVKITKAQAFSLVGEEVLEHHHHHH”, for which the “soluble on expression in E. coli” value is given as “not soluble”.
As for “MAGDPMKAREVEFEGHLIDSMIFTKALDIILDLDGEFEILEFRVGKKKDDPSYARMIVFGRDDAHLEQILKELHKIGARIPDIEEVELAEAPADKVLPDGFYVTTNHPTFVRYGGEWLPVEDISMDRVIVIRDGRAYCIPIDEVVRGDRVVVGEKGVRVVPPERPRKSTVFEFMGGRVSSERPTERMIEAIAREIYELKLKGGKIAVVAGPAVDHTSARNALAALIRDGYVDLLLSGNALAVHDIEISIFGTSLGMDICKGRPVPGGNRHHLYTISKVIAAGGIKKAIEKGIIKDGIMYECVKNNVPFILAGSIRDDGPLPEVITDVMVAKKKMKEALRGINMVIMLATMLHSIAVGNLLPSYVKTICVDMNPSTVTKLMDRGTHQAIGVVTDVGLFLPLLYLKIKEIEAKELEHHHHHH”, the entry is “soluble”.
Turning to “MAGDPMKKTILLTMTTLTLFSMSPNSAQAYTNDSKTLEEAKKAHPNAQFKVNKDTGAYTYTYDKNNTPNNNHQNQSRTNDNHQHANQRDLNNNQYHSSLSGQYTHINDAIDSHTPPQTSPSNPLTPAIPNVEDNDDELNNAFSKDNKGLITGIDLDELYDELQIAEFNDKAKTADGKPLALGNGKIIDQPLITSKNNLYTAGQCTWYVFDKRAKDGHTISTFWGDAKNWAGQASSNGFKVDRHPTRGSILQTVNGPFGHVAYVEKVNIDGSILISEMNWIGEYIVSSRTISASEVSSYNYIHLEHHHHHH”, the “soluble on expression in E. coli” value was “not soluble”.
As for “MAGDPMKQFAQTYYLLQFIICLICLSISCGEGGNDNYSETNDERNKEPEITVSPITNLEAKSTQIANQLLITWQNPNTPNLLGVELSYLQKNGGTHNGKQIIQGAAGKTGNYTLQLPQYGTYEISAIAIDNYGHRSSAVTVIATPAETTVPFSWATLADSCTYVLIEQFMNKSKGTFWSTPKDMSDESTYIYWQQAHAMDVVIYSYKRIKDTNKQLAATYRTYFERWYANHANNYHRNPSDETGFLNDFTDDMCWICLTLIHLSEATGDEKFAQTAKIVYDKYIITRAWTDDKGTGLPWNTTQNDRNACTNSPGCLVAAKLYQRYEDGNYLSDAKKLYEYVVNNSYNADGRVEEPPLTYTQGTFGEACRQLYHITQESKYMDKAKQVINYAATSDRCLRNGILRDEGSSMDQSIFKSVYIPYAVNLALDEASSSIGKHLITFLKNNAETLRMNLNHAAYPAMYCNYWWGEMWKSSEPASMGAQVSGASLMEGIARLEAAALEHHHHHH”, the entry is “not soluble”; as for “MAGDPMNEQSQAKSPDTLRAMVAGTLANFQHPTLKHNLTTLKALHHVAWMDDTLHVELVMPFVWNSAFEVLKEQCSADLLRITGAKAIDWKLSYNIATLKRVKNQPGINGVKNIIAVSSGKGGVGKSSTAVNLALALAAEGAKVGVLDADIYGPSIPTMLGAEDQRPTSPDGTHMAPIMSHGLATNSIGYLVTDDNAMVWRGPMASKALMQMLQETLWPDLDYLVLDMPPGTGDIQLTLAQNIPVTGAVVVTTPQDIALIDAKKGIVMFEKVEVPVLGIVENMSMHICSNCGHHEPIFGTGGAQKLAEKYHTQLLGQMPLHISLREDLDRGTPTVVSRPESEFTAIYRELADRVAAQLYWQGEVIPGEIAFRAVLEHHHHHH”, “soluble”; as for “MAGDQELELRFDVPLYTLAEASRYLVVPRATLATWADGYERRPANAPAVQGQPIITALPHPTGSHARLPFVGIAEAYVLNAFRRAGVPMQRIRPSLDWLIKNVGPHALASQDLCTDGAEVLWRFAERSGEGSPDDLVVRGLIVPRSGQYVFKEIVEHYLQQISFADDNLASMIRLPQYGDANVVLDPRRGYGQPVFDGSGVRVADVLGPLRAGATFQAVADDYGVTPDQLRDALDAIAA”, “soluble”.
As for “MAGEKFQKKGKEKWKEKVWYTVEAPPYLGSKEVSVALGEDSNSMVNRVVEVPISELTGNFKKSNEKALFRITNCEGTKCKTIFIGHYIGDDYIRRLVRRRKERIDIIEDVKTSDNSIITVKIVVVTDGKVTNTKKFQIRKVLTDFILNKGLSLPYSEFVRYLIGDDIYNDMISATKDIYPLKKIEVRKSELVSLSGISEIHAGSQLEHHHHHH”, the entry is “soluble”; as for “MAGGEDRGDGEPVSVVTVRVQYLEDTDPFASANFPEPRRAPTCSLDGALPLGAQIPAVHRLLGAPLKLEDSALQVSPSGYYLDTELSLEEQREMLEGFYEEISKGRKPTLILRTQLSVRVNAILEKLYSSSGPELRRSLFSLKQIFQEDKDLVPEFVHSEGLSCLIRVGAAADHNYQSYILRALGQLMLFVDGMLGVVAHSDTIQWLYTLCASLSRLVVKTALKLLLVFVEYSENNAPLFIRAVNSVASTTGAPPWANLVSILEEKNGADPELLVYTVTLINKTLAALPDQDSFYDVTDALEQQGMEALVQRHLGTAGTDVDLRTQLVLYENALKLEDG”, “soluble”; as for “MAGRKSSRTAERVPTTQKPERKSAILSPHDELRERLLETAIDMKENIPQRNTRNSSVGSQKSDCSETRKRRSTKEGPAAKRHSGEKHRNGSREDSLEYISDDREVGSSSSQSSRTRGQPLPAMPEEEEVFDKSSSSDNLAESEESHEMVRLEERQDIEEEIEDDFDDEEEDVVNDKEEYEEIESEDEDDYPVQNEGFAVTKRLMNDEHMVTAPTFLSTAKCDGIGSPTKVWSLMVKRDEIPRATRFLLGNHPDMDDEKRRILIDWMMEVCESEKLHRETFHLAVDYVDRYLESSNVECSTDNFQLVGTAALFIAAKYEEIYPPKCIDFAHLTDSAFTCDNIRTMEVLIVKYIGWSLGPITSIQWLSTYLQLLGTGKKNKSDHYEEQNMYVPELLRSEYLEMCKILDFLLFEIDSFTFSYRTIAAAVLFVNYEPTCAVEKATGFMQAQLEKVIEYVEPVCRAFAKQRQLLDDVIPKHESIKSDDSHNIQVYVKRSSMEPIVKSERERIQHLKARRLHPQRLF”, “not soluble”.
For “MAHERAGQLAQPQDLIDIAEVVTAYYTRTPDADNPDQQVAFGTSGHRGSSLDTAFNENHILAITQAIVEYRAQHHIGGPIFIGRDTHALSEPAMISALEVLLAHGIEVLVDDRGRYTPTPAVSHAILAYNAQRSDSSQYSDGIVITPSHNPPRDGGFKYNPPNGGPADTDATDWIADRANTLLREGLVSVKRTSVTGVLDPRAHRHNYMENYIADLPNVVDIDAIRNSGLAIGADPMGGASVDYWGAIAEKHSLNLTVVNPLVDATWRFMTLDTDGKIRMDCSSPDSMASLVHNRTKYDIATGNDADADRHGIVTPDAGLMNPNHYLAVAIDYLFSHRPQWNSSTAVGKTLVSSSMIDRVVADLGRKLVEVPVGFKWFVPGLVDGSVGFGGEESAGASFLRHNGTVWSTDKDGIILDLLASEITAVTGKTPSQRYEELAARFGSPAYARTDAPATREQKAVLKKLSPEQVTATELAGEAITAKLTTAPGNGAAIGGLKVTTENAWFAARPSGTEDKYKIYAESFLGADHLAMVQREAQNLVSDVL” the value was “not soluble”; for “MAHHHHHHMAKERNLDLKALQRSKRTVAHAYDAGVRSVPPALPLDIGGALAQVLTTRVTTCFGLHLIVTAQNEDAEQQSAPSLLMDVAVRAHLERLPLPVLHRLISDLCEVRAAWKRDLLAPSAAAAVQEQALLGRESINALLYHVCLWQRRYPLELLSAVLSFYDEHKHLFSPATSERCSASVQLESLLEEVQCLQYPDLSDVPGLIRCDVFMTYPHMPLGEQRQLMHTIAAAVVHRKAAGGLQRQSSCMGTEEKYVTDNLLRHSRTPPDPRLLLRSFVVDGAAAIPERFCTDMPTQTYHEMRAAFERHKHDGVRRLAAQDYGQAVTELTPPPPPPPPQPAASSVPSS”, “not soluble”.
With “MAHHHHHHMASVDTQWAIKSILQLGHHHLRHGAETTSSSSSCLVRPTSPPFRSASKAVQVTAMPRLMRASCDPSYVILLAKRPSGIAGVSLRPGNRVPWTGLPAAASSLVSAPCSKKTRLLASYLQRRGFATIRPVATDTHSSPSQFRPVQRSMPLLLHTSHLIGWKLNDASPAFPVYAHTLAELQQLRSSDVAALKPQHCLIANEYCEWDNWREVLGEPGWDLFSADEDAVERLLQDGLAISALEEEAGLYPVEVL”, the “soluble on expression in E. coli” value was “not soluble”.
As for “MAHHHHHHMASVSSGVPLTAPSAQKLLQSVKYILLDVDGVVWSGPRVLPNIPQTLQYLRSLGKEIRFLTNNASVSRSSLAQLFRQRGIEGVKESEVYNSGYAAALRLRRICGAAEGNQERQEGNEPTSDKRLVRGNVFVIGEEGLHEELQRVLAPGYITYGMELHDAEKVGGYNSANAATAWKERILPAPLRQLKPPDGITDYGRGISLTDLSPVAVVVGLDLHFNMLKLAYASLCLHRGAGSNTDSEGDRIGGDRDRTPDKGLQKPVCFIATNEDPQIPIGEEGLLLPGAGGMVSALRTVSGRNPDAVCGKPHVDMARIMFEAEGITDARQCLMVGDRLTTDIAFGNAAGCRTLFVLSGAESMADIARAKSTGDSQLLPEFVAPSLASLMPDARDD”, the entry is “soluble”; as for “MAHHHHHHMATCTLSVARFGRPSTFAHRRVRWLPPYDGNSTCLDWWLPTDAEAADTAADGGAAAIRVRALAVILPGLTGSSKEFYVRRMARQLLRAHMATCVLTSRGVADTHLERPQIFSALFAKDLRHIMQACMTREKVQECLLRRISPLQSSDHHKGAVPIIGVAFSLGGRILTNYVSEQGEAEAPSGFDAVYTITSPHNVSDGAAALRMLLSKLLYGSTLYKRLRAYYERHKNVLQNLPDIDKKLLMDGDSPLVKRLRTVQDFGEFITGPHVGFPGAEAYYVAASSFRRLHHSRMPQVCVVVANDPIYGPPQPAPRWLHLIDMHCGGLVYVEMPVGGHLGFLGCPWSEWTQAPNEMEHLVLRSLIHFIKSADTQAAEAKTNE”, “soluble”.
For “MAHHHHHHMATLTEDEIAPSAIAAERERLQEATQHVAELERRLDALQRELEAACTRREQLLLSVQWRELMAAVNADEDVYAVAERMMDAFAAFRESLVEPENYLQEQREEVLKEDDIVPYSDTDDYADFSGVEAVVEELLAAVKEQLESHAAAPPSSFRQTKHSSLRGSFASDERPKHPDGESAEAHKVSADARRQALLKLLVITVLMGRVEQYCRFKSISDASNVPQSEAEEMRDGVASVWQWLFHEQPGVLTAEEGAEWKHIAGAFLGDSYTVAP” the value was “not soluble”; for “MAHHHHHHMCVRSMDPTKKGNENFPQRNVAIEEANFDSAFPAFNVHYNVEPKDWRHIELVEKEKQDFLLGIKKEIRLMQEDKNKINYVLNVQKQQLEELQFLLNRMKHFRRKSLIAEGEEQLKVDLLAMPRYLRTGTLFSVDTLGEENALRDFNELHNYSVDKSRLTTRGSFYHNLAEQWVG”, “not soluble”.
As for “MAHHHHHHMDATPHMHAKTIFMTHWDGLEKDSDARIIVVGATNRRFTIDDAIRRRLPLQLEVPPPDAKAREKILSILLAHDLEYNPKKDGLIRYVALKTAEYTGSDLSELCKAAALMPLREMESMKAGGASSAAPETVPPLTQQHFDKAMERVKASK”, the entry is “soluble”.
